Measurements: patent US20220378912A1 (Novartis, published 2022)

Columns and labels:
[1] = molecular target: T1, P-selectin fused to immunoglobulin (Psel-Ig) (UniProt P16109 42-771, limits assumed); assay: SPR competition: dilution series of crizanlizumab and any variants thereof inhibiting Psel-Ig binding to immobilised biotinylated GSP-6 (standard inhibition curve)
T1 construct: also called spiked P-selectin; not shown: immunoglobulin part of the fusion
T1 sequence (looked up): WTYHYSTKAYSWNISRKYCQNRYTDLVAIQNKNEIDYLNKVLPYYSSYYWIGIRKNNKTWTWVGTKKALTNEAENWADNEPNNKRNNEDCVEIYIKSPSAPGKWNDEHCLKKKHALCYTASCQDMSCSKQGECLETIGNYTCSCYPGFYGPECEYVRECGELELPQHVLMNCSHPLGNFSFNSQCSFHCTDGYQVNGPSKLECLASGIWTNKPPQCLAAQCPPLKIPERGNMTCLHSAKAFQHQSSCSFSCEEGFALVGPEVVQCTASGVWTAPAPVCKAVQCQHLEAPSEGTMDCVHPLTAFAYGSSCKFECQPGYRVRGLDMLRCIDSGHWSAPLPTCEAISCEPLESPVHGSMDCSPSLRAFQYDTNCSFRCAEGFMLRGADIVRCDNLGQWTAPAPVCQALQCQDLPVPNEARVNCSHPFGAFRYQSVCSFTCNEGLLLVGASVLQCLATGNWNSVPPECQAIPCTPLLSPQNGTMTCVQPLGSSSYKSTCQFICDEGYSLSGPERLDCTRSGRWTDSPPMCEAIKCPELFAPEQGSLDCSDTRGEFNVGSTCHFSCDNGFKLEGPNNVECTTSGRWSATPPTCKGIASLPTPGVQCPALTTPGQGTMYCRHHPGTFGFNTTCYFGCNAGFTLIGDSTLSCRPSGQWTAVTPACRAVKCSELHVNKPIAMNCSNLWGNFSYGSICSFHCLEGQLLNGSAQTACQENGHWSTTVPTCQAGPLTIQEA
Description: An SPR-based method was used to measure ex vivo % P-selectin inhibition of crizanlizumab in human serum samples from human donors treated with crizanlizumab. This PD assay measured the ability of crizanlizumab and it variants in serum to block P-selectin (antigen; ligand) binding to PSGL-1 (ligand receptor). Blockage by crizanlizumab and any variants thereof was measured as % inhibition of spiked P-selectin fused to immunoglobulin (Psel-Ig) binding to glycosulfopeptide 6 (GSP-6), a peptide analogue mimicking the PSGL-1 binding domain. For example, streptavidin was immobilized on 2 channels (FC-2 and FC-3) of the used biosensor chip using standard amine coupling followed by injection of biotinylated GSP-6 to immobilize the peptide for analysis. A reference channel (FC-1) was prepared by biotin-blocking streptavidin. The pre-treatment samples established the maximum binding for each subject and this was used as the basis for calculating % inhibition using the post-dose serum samples from the subject at various time points. Quantified crizanlizumab and any variants thereof in a series of dilutions were used to generate standard inhibitition curve, showing an IC₅₀ value of 5.2 μg/mL for crizanlizumab under all conditions.

[2] = molecular target: T2, recombinant human P-selectin (human, UniProt P16109 42-771, limits assumed); assay: P-selectin binding assay of Example 2 (ELISA), relative %; CZE peak comprising the variant
T2 construct: Coated on ELISA plates
T2 sequence (looked up): T1 sequence (looked up)
Description: In the ELISA, potency and identity of SEG101 samples are measured based on their ability to bind recombinant human P-selectin. ELISA plates are coated with recombinant human P-selectin, and graded amounts of SEG101 are added. Bound SEG101 is quantified using an anti-human IgG antibody coupled to horseradish peroxidase followed by the addition of a colorimetric substrate. Results of the colorimetric reaction are measured by light absorption. The potency of a SEG101 test sample is quantified by comparing its ability to bind P-selectin to that of a SEG101 reference standard. The samples and the standard are normalized on the basis of protein content. Relative potency is calculated using a parallel line assay according to the European Pharmacopoeia. The final result is expressed as relative potency (in percent) of a sample compared to the reference standard.

B1: SEG101 (crizanlizumab), humanised monoclonal antibody against human P-selectin (antibody, human IgG2, kappa, V domains shown)
VH: QVQLVQSGAEVKKPGASVKVSCKVSGYTFTSYDINWVRQAPGKGLEWMGWIYPGDGSIKYNEKFKGRVTMTVDKSTDTAYMELSSLRSEDTAVYYCARRGEYGNYEGAMDYWGQGTLVTVSS
VL: DIQMTQSPSSLSASVGDRVTITCKASQSVDYDGHSYMNWYQQKPGKAPKLLIYAASNLESGVPSRFSGSGSGTDFTLTISSLQPEDFATYYCQQSDENPLTFGGGTKVEIKR
notes: also called SelG1; main peak
- IC50 [1]: 5.2 µg/mL
- P-selectin binding affinity [%] [2]: 90%

B2: homo-iso-crizanlizumab (antibody, human IgG2, kappa, V domains shown)
VH: B1 VH
VL: B1 VL
modifications: isoaspartic acid at position 32
notes: Aspartic acid at position 32 of both light chains replaced by isoaspartic acid; also called iso-crizanlizumab (both light chains)
- P-selectin binding affinity [%] [2]: 119%

B3: D-succinimide of crizanlizumab (antibody, human IgG2, kappa)
heavy: QVQLVQSGAEVKKPGASVKVSCKVSGYTFTSYDINWVRQAPGKGLEWMGWIYPGDGSIKYNEKFKGRVTMTVDKSTDTAYMELSSLRSEDTAVYYCARRGEYGNYEGAMDYWGQGTLVTVSSASTKGPSVFPLAPCSRSTSESTAALGCLVKDYFPEPVTVSWNSGALTSGVHTFPAVLQSSGLYSLSSVVTVTSSNFGTQTYTCNVDHKPSNTKVDKTVERKCCVECPPCPAPPVAGPSVFLFPPKPKDTLMISRTPEVTCVVVDVSHEDPEVQFNWYVDGMEVHNAKTKPREEQFNSTFRVVSVLTVVHQDWLNGKEYKCAVSNKGLPAPIEKTISKTKGQPREPQVYTLPPSREEMTKNQVSLTCLVKGFYPSDIAVEWESNGQPENNYKTTPPMLDSDGSFFLYSKLTVDKSRWQQGNVFSCSVMHEALHNHYTQKSLSLSPGK
light 1: DIQMTQSPSSLSASVGDRVTITCKASQSVDYDGHSYMNWYQQKPGKAPKLLIYAASNLESGVPSRFSGSGSGTDFTLTISSLQPEDFATYYCQQSDENPLTFGGGTKVEIKRTVAAPSVFIFPPSDEQLKSGTASVVCLLNNFYPREAKVQWKVDNALQSGNSQESVTEQDSKDSTYSLSSTLTLSKADYEKHKVYACEVTHQGLSSPVTKSFNRGEC
light 2: B3 light 1
modifications: succinimide at position 32
notes: One light chain with succinimide, the other with aspartic acid at position 32; also called D-Succi-crizanlizumab
- P-selectin binding affinity [%] [2]: 78%

B4: hetero-iso-crizanlizumab (antibody, human IgG2, kappa)
heavy: B3 heavy
light 1: B3 light 1
light 2: B3 light 1
modifications: isoaspartic acid at position 32
notes: Aspartic acid at position 32 of only one light chain replaced by isoaspartic acid; also called iso-crizanlizumab (one light chain)
- P-selectin binding affinity [%] [2]: 105%

B5: isoD-succinimide of crizanlizumab (antibody, human IgG2, kappa)
heavy: B3 heavy
light 1: B3 light 1
light 2: B3 light 1
modifications: isoaspartic acid at position 32; succinimide at position 32
notes: One light chain with succinimide, the other with isoaspartic acid at position 32; also called isoD-Succi-crizanlizumab
- P-selectin binding affinity [%] [2]: 63%
